Here are results for 30 sequences from the nanobody polyreactivity screen of Harvey et al. (2022).

The data set can be described thus: yeast display, Sf9 membrane polyspecificity reagent, FACS + sequencing; frameworks hold sequencing errors. Summed up: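 Nanobodies came from a synthetic yeast display library in Saccharomyces cerevisiae BJ5465, induced with galactose for 36–48 hours and stained for 1 hour at 4 °C with 10% biotinylated, detergent-solubilized Sf9 membrane reagent. Cells were enriched on streptavidin microbeads and then FACS-sorted, with low and high (top ~1%) gates set on anti-HA fluorescence for expression and streptavidin fluorescence for reagent binding. Each polyreactivity label reflects the gate a clone came from. Genes were amplified by colony PCR, sequenced by MiSeq 2 × 250 and filtered by CDR length.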
Turning to “QVQLVESGGGLVQAGGSLRLSCAASGLTFRVYAMGWYRQAPGKERELVASISRTGSTTYADSVKGRFTISRDNAKNTVYLQMNSLKPEDTAVYYCNARYYVLLWDSLAREYWGQGTQVTVSS”, the “polyreactivity (PSR sort gate)” value is on record as “high polyreactivity”.
As for “QVQLVESGGGLVQAGGSLRLSCAASGLTFRWYALGWFRQATGKERELVAAISSGGRTYYADSVKGRFTISRDNANNTVYLQMNSRKPEDTAVYYCNKRTLDYGFGSYGREYWGQGTQVTVSS”, the “polyreactivity (PSR sort gate)” value is “high polyreactivity”.
Next, “QVQLVESGGGLVQAGGSLRLSCAASGLTFRWYAMGWYRQEPGKERELVAAISSSGNTNYADSVKGRFTISRDNAKNTVYLQMNSLKPGDSAVYYCAASYYSYPPGLSQTRLTYYYWGQGTQLTVSS”: “high polyreactivity”.
Next, “QVQLVESGGGLVQAGGSLRLSCAASGLTFRYNAMGWYRQAPGKERELVARISRNGGRTYYADSVKGRFTISRDNAKNTVYLQMNSLKPEDTAVYYCNVVYFVTTSPCYDYWGQGTQVTVSS”: “high polyreactivity”.
For the sequence “QVQLVESGGGLVQAGGSLRLSCAASGLTFRYYTMGWYRQAPGKERELVASITSGGITYYADSVKGRFTISRDNAKNTVYLQMNSLKPEDTAVYYCAKGSYRTTYGALGVKFGYWGQGTKVTVSS”, the “polyreactivity (PSR sort gate)” value is “high polyreactivity”.
Next, “QVQLVESGGGLVQAGGSLRLSCAASGLTFRYYTMGWYRQAPGNERELVASSTSGGITYYADSVKGRFTISRDNAKNTVYLQMNSLKPEDPAVYYCAKGSYRTTYGALGVKYGYWGQGTQVTVSS”: “high polyreactivity”; “QVQLVESGGGLVQAGGSLRLSCAASGLTFSCYAMGWYRQAPGKERELVASINYSGANTYYADSVKGRFTISRDNAKNTVYLQMNSLKPEDTAVYYCNTRRRRYQNERVTYDYWGQGTQVTVSS”: “high polyreactivity”.
Next, “QVQLVESGGGLVQAGGSLRLSCAASGLTFSDYAMGWYRQAPGKERELVAAITWRGTSTYYADSVKGRFTISRDNAKNTVYLQMNSLKPEDTAVYYCAARKYTGSGTRYYYWGQGTQVTVSS”: “high polyreactivity”.
As for “QVQLVESGGGLVQAGGSLRLSCAASGLTFSDYTMGWYRQAPGKERELVAAISDSTGSTYYADSVKGRFTMSRDNAKNTVYLQMNSLKPEDTAVYNCIAYGYYHRLYSYTYGYWGQGTQVTVSS”, the entry is “low polyreactivity”; as for “QVQLVESGGGLVQAGGSLRLSCAASGLTFSGNTMGWYRQAPGKVRELVAAISSDGSTNYADSVKGRFTISRDNAKNTVYLQMNSLKPEDTAVYYCNARVRYYFAFWRDYWGQGTQVTVSS”, “low polyreactivity”.
As to “QVQLVESGGGLVQAGGSLRLSCAASGLTFSKNAMGWYRQAPGKERELVATISYSSSRTNYADSVKGRFTISRDNAKNTVYLQMNSLKPEDTAVYYCAARVYKGWPTHYDYWGQGTQVTVSS”, the “polyreactivity (PSR sort gate)” value is “high polyreactivity”.
As for “QVQLVESGGGLVQAGGSLRLSCAASGLTFSLNAMGWYRQAPGKERELVAAIRGSGGSTYYADSVKGRFTISRDNAKNTVYLQMNCLKPEDTAVYYCNADQLVWQRYGVLYEYDYWGQGTQVTVSS”, the entry is “high polyreactivity”; as for “QVQLVESGGGLVQAGGSLRLSCAASGLTFSLYALGWYRQAPGKERELVAAISWTGGSTYYADSVKGRFSISRDNAKNTVYLQMKSLKPEDTAVDYCNARYTLFARYGYDYWGQGTQVTVSS”, “low polyreactivity”.
Regarding “QVQLVESGGGLVQAGGSLRLSCAASGLTFSLYAMAWYRQAPGNESELVAANSWTGGSTYYADSVKGRFTISRDNAKNTVYLHMNSLKPEDTAVYYCNARYTLFARYGYDYWGQGTQVTVSS”, the “polyreactivity (PSR sort gate)” value is “low polyreactivity”.
For “QVQLVESGGGLVQAGGSLRLSCAASGLTFSNYAMGWYRQAPGKERELVAAISASGGSTYYADSVKGRFTISRDNAKNTVYLQMNSLKPEDTAVYYCAAATTRPVYPANDDYWGQGTQVTVSS”, the “polyreactivity (PSR sort gate)” value is listed as “low polyreactivity”.
Next, “QVQLVESGGGLVQAGGSLRLSCAASGLTFSRNAMGGYRQAPGKERELVAGISVSGSITFYADSVKGRFTISRDNAKNTVYLQMNSLKPEDTAVYYCAARYRYRYTPSVTGYDYWGQGTQVTVSS”: “high polyreactivity”; “QVQLVESGGGLVQAGGSLRLSCAASGLTFSRNAMGWYRRAAGKERELVAAITKSGARTYYADSVKGRFTISRDNAKNTVYLQMNSLKPEDTAVYYCAADALNTYYYWGQGTQVTVSS”: “high polyreactivity”.
With “QVQLVESGGGLVQAGGSLRLSCAASGLTFSSYTMGWYRQAPGKERELVAAISSGGSTYYADSVKGRFTISRDNAKNTVYLQMNSLKPEDTAVYYCAAAFRYTPLSDHGYWGQGTQVTVSS”, the “polyreactivity (PSR sort gate)” value is on record as “high polyreactivity”.
As for “QVQLVESGGGLVQAGGSLRLSCAASGLTFSVYAMGWYREAPGKERELVAGITSSVGDTYYADSVKGRFTISRDNAKNTVYLQMNSLKPEDTAVYYCNAKYRTFVSKHDYWGQGTQLTVSS”, the entry is “low polyreactivity”; as for “QVQLVESGGGLVQAGGSLRLSCAASGLTFSVYTMGWYRQAPGKERELVAAITTSGGRTYYADSVKGRFTISRDNAKNTVYLQMNSLKPEDTAVYYCAAVRTGDTTGTMGYWGQGTQVTVSS”, “high polyreactivity”; as for “QVQLVESGGGLVQAGGSLRLSCAASGLTFSYYAMGWYRQAPGKERELVAAISGRGSTYYADSVKGRFTISRDNAKNTVYLQMNSLKPEDTAVYYCNAYGRFGLYDYWGQGTQVTVSS”, “high polyreactivity”.
On to “QVQLVESGGGLVQAGGSLRLSCAASGLTFSYYARGWYRQAPGKERELVAAISWSGDSTYYADSVKGRFTISRDNAKNTVYVQMHSLKPEDTAVYYCAVVSDFYTPYTGWPFLDYEYWGQGTQVTVSS”, for which the “polyreactivity (PSR sort gate)” value is given as “low polyreactivity”.
As for “QVQLVESGGGLVQAGGSLRLSCAASGLTFTLNAMGWYRQAPGKERELVATISQDGGGTTYADSVKGRFTISRDNAKNTVYLQMNSLKPEDTAVYYCATTLPPSVWGEWSGTRYPYDYWGQGTQVTVSS”, the entry is “low polyreactivity”; as for “QVQLVESGGGLVQAGGSLRLSCAASGLTFTTYAMGWYRQAPGKERELVAAISRRGSRTYYADSVKGRFTISRDNAKNTVYLQMNILKPEDTEVYYCNAMTGSFKTYSFDYWGHGTQVTVSS”, “high polyreactivity”.
Next, “QVQLVESGGGLVQAGGSLRLSCAASGLTFTWYTMGWYRQAPGKERELVAAITSGGSTNYADSVKGSFTISRDNAKNTVYLQMNSLKPEDTAVYYCAASRTFYWWEYGYWGQGTQVTVSS”: “high polyreactivity”; “QVQLVESGGGLVQAGGSLRLSCAASGLTFVANAMGWYRQAPGKERELVAAIDYGGGHTYYADSVKGRFTISRDYAKNTVYLQMNSLKPEDTAVYYCAVGLPHGGRRLYGSWYRFDYWGQGTQVTVSS”: “low polyreactivity”.
As for “QVQLVESGGGLVQAGGSLRLSCAASGLTFVANAMGWYRQAPGKERELVAAISRRGTRTYYADSVKGRFTISRDNAKNTVYLQMNSLKPEDTAVYYCAAEYNSEYDYWGQGTQVTVSS”, the entry is “high polyreactivity”; as for “QVQLVESGGGLVQAGGSLRLSCAASGLTFVDNAMGWYRQAPGKERELVAAISYNGGSTYYADSVMGRFTISRDNAKNTVYLLMNSLKPEDTAVYYCAADISVGRYGDMDYWGQGTQVTVSS”, “low polyreactivity”; as for “QVQLVESGGGLVQAGGSLRLSCAASGLTFVDNAMGWYRQAPGKESELVAAITKRGGRTYYADSVKGRFTISRDNAKNTFYLQMNSLKPEDTAVYYCARESGNDSSRRLDYWGQGTQVTVSS”, “low polyreactivity”.
As for “QVQLVESGGGLVQAGGSLRLSCAASGLTFVDYAMGWYRPAPGKERELVAGISYSGGSTYYADSVKGRFTISRDNAKNTVYLQMNSLKPEDTAVYYCAAKYRRPRYGYWGQGTQVTVSS”, the “polyreactivity (PSR sort gate)” value was “high polyreactivity”.
